Measurements from publication PMC4911334.

Biological target: minimal functional rat TRPV1 construct, tetramer reconstituted in lipid nanodisc (rat) (UniProt O35433)
Test: cryo-EM structure

UniProt O35433, sequence (O35433 whole entry): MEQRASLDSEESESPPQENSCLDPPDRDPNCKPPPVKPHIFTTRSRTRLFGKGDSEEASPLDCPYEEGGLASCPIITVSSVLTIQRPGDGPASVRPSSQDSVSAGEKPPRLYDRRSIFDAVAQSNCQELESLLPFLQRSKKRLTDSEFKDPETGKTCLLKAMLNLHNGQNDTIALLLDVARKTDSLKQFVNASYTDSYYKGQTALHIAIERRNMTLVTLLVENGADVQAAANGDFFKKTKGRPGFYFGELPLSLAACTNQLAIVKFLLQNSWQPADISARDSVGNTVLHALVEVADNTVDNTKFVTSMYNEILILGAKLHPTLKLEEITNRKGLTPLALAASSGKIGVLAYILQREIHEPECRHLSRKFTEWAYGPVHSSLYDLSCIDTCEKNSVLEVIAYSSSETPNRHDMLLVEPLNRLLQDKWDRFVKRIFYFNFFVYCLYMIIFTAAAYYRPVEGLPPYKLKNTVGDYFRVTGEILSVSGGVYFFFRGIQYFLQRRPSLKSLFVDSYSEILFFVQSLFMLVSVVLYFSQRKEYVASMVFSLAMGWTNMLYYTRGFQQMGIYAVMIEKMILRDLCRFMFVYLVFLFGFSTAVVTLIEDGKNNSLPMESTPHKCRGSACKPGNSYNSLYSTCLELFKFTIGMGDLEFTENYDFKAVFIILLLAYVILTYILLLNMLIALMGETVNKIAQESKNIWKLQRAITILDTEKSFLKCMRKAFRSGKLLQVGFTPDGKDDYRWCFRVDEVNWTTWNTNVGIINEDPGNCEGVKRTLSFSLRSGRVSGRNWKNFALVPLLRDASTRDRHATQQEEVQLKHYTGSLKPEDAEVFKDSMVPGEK

B1: double-knot toxin (DkTx) (peptide)
chain: DCAKEGEVCSWGKKCCDLDNFYCPMEFIPHCKKYKPYVPVTTNCAKEGEVCGWGSKCCHGLDCPLAFIPYCEKYRGRND
  stoichiometry N (DkTx per TRPV1 tetramer): 2
